The values that follow are results of earlier work, collected in PMC8162889.

The data set has as its target EphA2 ECD (Homo sapiens) (UniProt P29317). Briefly: MST.
Sequence of UniProt P29317 (P29317 24-537): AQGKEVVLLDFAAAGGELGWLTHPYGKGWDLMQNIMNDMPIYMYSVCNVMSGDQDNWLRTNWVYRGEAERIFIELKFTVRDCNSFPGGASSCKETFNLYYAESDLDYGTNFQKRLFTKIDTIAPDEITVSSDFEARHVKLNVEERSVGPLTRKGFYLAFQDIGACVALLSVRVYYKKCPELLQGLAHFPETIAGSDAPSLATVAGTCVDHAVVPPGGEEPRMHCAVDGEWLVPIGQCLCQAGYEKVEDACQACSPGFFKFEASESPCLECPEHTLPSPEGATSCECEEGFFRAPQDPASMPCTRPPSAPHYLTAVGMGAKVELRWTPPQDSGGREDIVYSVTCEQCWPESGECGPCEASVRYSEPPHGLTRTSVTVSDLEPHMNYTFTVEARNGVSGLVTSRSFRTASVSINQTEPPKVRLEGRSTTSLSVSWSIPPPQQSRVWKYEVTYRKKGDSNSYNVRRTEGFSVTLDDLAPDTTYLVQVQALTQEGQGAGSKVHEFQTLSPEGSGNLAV

Consider Progranulin (from UniProt P28799), for which the Kd is 1.2 nM.

The term Kd denotes the constant that tells how readily two partners part at equilibrium.
